Test results as given in the Human Domainome abundance scans (Beltran et al. 2025).
± gives the uncertainty stated by the source.

B1: Probable E3 ubiquitin-protein ligase MID2, residues 191 to 235; numbered along this chain, Q9UJV3 (parent)
chain: RGITCLDHENEKVNMYCVSDDQLICALCKLVGRHRDHQVASLNDR
B2: Triacylglycerol hydrolase DDHD2, residues 389 to 447; numbered along this chain, O94830 (parent)
chain: TLEEDLKKLQLSEFFDIFEKEKVDKEALALCTDRDLQEIGIPLGPRKKILNYFSTRKNS

Variants of: B1
Experiment: abundance fitness (aPCA) (normalised: wild type 0, dead -1); higher = more abundant; growth selection in yeast, the domain comes from the species named
Details: Homo sapiens
For RGITCLDHENEKVNMYCVSDDQLICALCKLVGRHRDHQVASLNDV [R45V], the abundance fitness was -0.105 ± 0.084. In the case of RGITCLDHENEKVNMYCVSDDQLICALCKLVGRHRDHQVASLNDK [R45K], the abundance fitness is reported as 0.025 ± 0.11. RYITCLDHENEKVNMYCVSDDQLICALCKLVGRHRDHQVASLNDR [G2Y] gave an abundance fitness of 0.023 ± 0.12. With RQITCLDHENEKVNMYCVSDDQLICALCKLVGRHRDHQVASLNDR [G2Q] the abundance fitness was -0.181 ± 0.091. With RVITCLDHENEKVNMYCVSDDQLICALCKLVGRHRDHQVASLNDR [G2V] the abundance fitness was -0.216 ± 0.061. With RGITCLDHENEKVNMYCVSDDQLISALCKLVGRHRDHQVASLNDR [C25S] the abundance fitness was -1.03 ± 0.14. For RGITCLDHENEKVNMYCVSDDQLIEALCKLVGRHRDHQVASLNDR [C25E], the abundance fitness was -0.786 ± 0.11. For RGITCLDHENEKVNMYCVSDDQLIQALCKLVGRHRDHQVASLNDR [C25Q], the abundance fitness was -1.02 ± 0.15. In the case of RGITCLDHENEKVNMYCVSDDQLIRALCKLVGRHRDHQVASLNDR [C25R], the abundance fitness is reported as -1.2 ± 0.12. For RGITCLDHENEKVNMYCVSDDQLICALCKLVGRHTDHQVASLNDR [R35T], the abundance fitness was -0.195 ± 0.072. In the case of RGITCLDHENEKVNMYNVSDDQLICALCKLVGRHRDHQVASLNDR [C17N], the abundance fitness is reported as -0.212 ± 0.1. RGITCLDHENEKVNMYCVSDDQLICALCKLVGRHRDHQVASLNPR [D44P] gave an abundance fitness of -0.061 ± 0.13. Work on RGITCLDHENEKVNMYCVSDDQLICALCKLVGRHRDHQVASLNER [D44E] yielded an abundance fitness of 0.003 ± 0.14. With RGITCLDHENEKVNMYCVSDDQLICALCKLVGRHRDHQVASLNVR [D44V] the abundance fitness was -0.211 ± 0.064. RGITCLDHENEKVNMYCVSDDQLICALCKLVGRHRDHQVASLNGR [D44G] gave an abundance fitness of -0.075 ± 0.057. For RGITCLDHENEKVNMYCVSDDQLICALCKLVGRHRDHQVASLNKR [D44K], the abundance fitness was -0.175 ± 0.083. RGITCLDHENEKVNMYCVSDDQLICALCKLVGRHRDHQVASLGDR [N43G] showed an abundance fitness of -0.011 ± 0.056. RGITCLDHENEKVNMYCVSDDQLICALCKLVGRHRDHQVASLPDR [N43P] showed an abundance fitness of 0.062 ± 0.064. For RGITCLDHENEKVNMYCVSDDQLICALCKLVGRHRDHQVASLRDR [N43R], the abundance fitness was -0.154 ± 0.054. With RGITLLDHENEKVNMYCVSDDQLICALCKLVGRHRDHQVASLNDR [C5L] the abundance fitness was -0.985 ± 0.097. In the case of RGITFLDHENEKVNMYCVSDDQLICALCKLVGRHRDHQVASLNDR [C5F], the abundance fitness is reported as -0.951 ± 0.31. In the case of RGITNLDHENEKVNMYCVSDDQLICALCKLVGRHRDHQVASLNDR [C5N], the abundance fitness is reported as -0.487 ± 0.082. Variant RGITCLDHENEKVNMVCVSDDQLICALCKLVGRHRDHQVASLNDR [Y16V] has an abundance fitness of 0.023 ± 0.055. For RGITCLDHENEKVNMDCVSDDQLICALCKLVGRHRDHQVASLNDR [Y16D], the abundance fitness was -0.067 ± 0.12. RGITCLDHENEKVNMYCVSDDQLGCALCKLVGRHRDHQVASLNDR [I24G] gave an abundance fitness of -0.269 ± 0.084. For RGITCLDHENEKVNMYCVSDDQLICALCKLVGRHRDHQVASANDR [L42A], the abundance fitness was 0.118 ± 0.056. RGITCLDHENEKVNMYCVSDDQLICALCKLVGRHRDHQVASTNDR [L42T] showed an abundance fitness of -0.096 ± 0.086. Work on RGITCLDHENEKVNMYCVSDDQLICALCKLVGRHRDHQVASGNDR [L42G] yielded an abundance fitness of -0.071 ± 0.055. Work on RGITCLDHENEKVNMYCVSDDQLICALCKLVGRHRDHQVASCNDR [L42C] yielded an abundance fitness of 0.269 ± 0.14.

Variants of: B2
Experiment: as above
Details: Homo sapiens
TLEEDLKKLQLSEFFDIFEKEKVDKEALALCTDWDLQEIGIPLGPRKKILNYFSTRKNS [R34W] gave an abundance fitness of -0.051 ± 0.092. With TLEEDLKKLQLSEFFDIFEKEKVDKEALALCTDQDLQEIGIPLGPRKKILNYFSTRKNS [R34Q] the abundance fitness was 0.059 ± 0.1. With TLEEDLKKLQLSEFFDIFEKEKVDKEALALCTDRDLQEIGIPLFPRKKILNYFSTRKNS [G44F] the abundance fitness was -0.151 ± 0.053. TLEEDLKKLQLSEFFDIMEKEKVDKEALALCTDRDLQEIGIPLGPRKKILNYFSTRKNS [F18M] gave an abundance fitness of -0.225 ± 0.15. TLEEDLKKLQLSEFKDIFEKEKVDKEALALCTDRDLQEIGIPLGPRKKILNYFSTRKNS [F15K] showed an abundance fitness of 0.068 ± 0.097. For TLEEDLKKLQLSEFFDIFEKEKVDKEALALCTDRDLQEIGIPLGPRKKILNYFSTYKNS [R56Y], the abundance fitness was 0.019 ± 0.11. Variant TLEEDLKKLQLSEFFDIFEKEKVDKEAHALCTDRDLQEIGIPLGPRKKILNYFSTRKNS [L28H] has an abundance fitness of -0.252 ± 0.14. For TLEEDLKKLQLSEFFDIFEKEKVDKEALFLCTDRDLQEIGIPLGPRKKILNYFSTRKNS [A29F], the abundance fitness was -0.066 ± 0.098. With TLEPDLKKLQLSEFFDIFEKEKVDKEALALCTDRDLQEIGIPLGPRKKILNYFSTRKNS [E4P] the abundance fitness was -0.996 ± 0.11. Variant TLEEDLKKLQLSEFFDIFEKEKVDKEALALCTDRDLQEILIPLGPRKKILNYFSTRKNS [G40L] has an abundance fitness of -1.01 ± 0.098. TLEEDLKKLQLSENFDIFEKEKVDKEALALCTDRDLQEIGIPLGPRKKILNYFSTRKNS [F14N] showed an abundance fitness of -0.193 ± 0.19. TLEEDLKKLQLSEFFDIFEKEKVPKEALALCTDRDLQEIGIPLGPRKKILNYFSTRKNS [D24P] gave an abundance fitness of -0.561 ± 0.18. TLEEDLKKLQLSEFFDIFEKEKVDKESLALCTDRDLQEIGIPLGPRKKILNYFSTRKNS [A27S] showed an abundance fitness of -0.096 ± 0.076. In the case of TLEEDLKKLQLSEFFDIFEKEKVDHEALALCTDRDLQEIGIPLGPRKKILNYFSTRKNS [K25H], the abundance fitness is reported as 0.159 ± 0.15. TLEEDLKKLQLSEFFDIFEKEKPDKEALALCTDRDLQEIGIPLGPRKKILNYFSTRKNS [V23P] gave an abundance fitness of -0.374 ± 0.11. In the case of TLEEDLKKLQLSEFFDIFEKEKVDKEALALCTDRDLQEIGIPLGPRKKILNYFSTRGNS [K57G], the abundance fitness is reported as -0.031 ± 0.061. TLEEDLKKLQLSEFFDIFEVEKVDKEALALCTDRDLQEIGIPLGPRKKILNYFSTRKNS [K20V] gave an abundance fitness of -0.432 ± 0.088. TLEEDLKKLQLSEFFDIFEKEKVDKEALALCTDRDLQEIGIPLGPRKKILNYFSTRKPS [N58P] gave an abundance fitness of -0.199 ± 0.11. Variant TLEEDLKKLQLSEFFDIFEKEKVDKEALALCTDRDLQEIGIPLGPRKKILNYFSTRKWS [N58W] has an abundance fitness of -0.373 ± 0.14. With TLEEDLKKLQLSEFFDIFEKEKVDKEALALQTDRDLQEIGIPLGPRKKILNYFSTRKNS [C31Q] the abundance fitness was -0.145 ± 0.13. In the case of NLEEDLKKLQLSEFFDIFEKEKVDKEALALCTDRDLQEIGIPLGPRKKILNYFSTRKNS [T1N], the abundance fitness is reported as 0.235 ± 0.29. For VLEEDLKKLQLSEFFDIFEKEKVDKEALALCTDRDLQEIGIPLGPRKKILNYFSTRKNS [T1V], the abundance fitness was -0.44 ± 0.15. TLEEDLKKLQLSEFFDIFEKEKVDKEALALCTDRDLQEIGIPHGPRKKILNYFSTRKNS [L43H] showed an abundance fitness of 0.519 ± 0.058. TLEEDLKKLQLSEFFDIFEKEKVDKEALALCTDRDLQEIGMPLGPRKKILNYFSTRKNS [I41M] gave an abundance fitness of 0.134 ± 0.08. For TLEEDLKKLQLSEFFVIFEKEKVDKEALALCTDRDLQEIGIPLGPRKKILNYFSTRKNS [D16V], the abundance fitness was -0.096 ± 0.05.
